This passage reports stoichiometry N (moles RecB^hCD per mole RecB^n) results from PMC10954480.

The assay addresses 6x His-tagged RecB nuclease domain (RecB^928–1180) (Escherichia coli) (UniProt P08394). The assay is described as follows: pull-down.

Sequence of 6x His-tagged RecB nuclease domain (RecB^928–1180) (Escherichia coli) (P08394 928-1180): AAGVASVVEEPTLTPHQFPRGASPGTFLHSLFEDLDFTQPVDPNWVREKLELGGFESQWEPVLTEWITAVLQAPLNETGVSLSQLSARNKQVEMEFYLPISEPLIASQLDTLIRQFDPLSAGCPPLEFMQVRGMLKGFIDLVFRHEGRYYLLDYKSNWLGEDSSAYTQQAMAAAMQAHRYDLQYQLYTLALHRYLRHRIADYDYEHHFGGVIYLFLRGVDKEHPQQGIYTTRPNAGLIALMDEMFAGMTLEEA

“RecB^1–927CD, truncated RecBCD enzyme lacking the RecB nuclease domain, P08394 1-927; P07648 1-1122; P04993 1-608” displayed a stoichiometry N (moles RecB^hCD per mole RecB^n) of 0.95.
